Measurements: PMC2628593 (Molecular cell, 2008)

Target: the molecule itself
Assay: SEC + other: dynamic light scattering

B1: Skap55 (Src-kinase-associated phosphoprotein of 55 kDa) (natural protein, UniProt Q86WV1 1-359, looked up)
chain: MQAAALPEEIRWLLEDAEEFLAEGLRNENLSAVARDHRDHILRGFQQIKARYYWDFQPQGGDIGQDSSDDNHSGTLGLSLTSDAPFLSDYQDEGMEDIVKGAQELDNVIKQGYLEKKSKDHSFFGSEWQKRWCVVSRGLFYYYANEKSKQPKGTFLIKGYGVRMAPHLRRDSKKESCFELTSQDRRSYEFTATSPAEARDWVDQISFLLKDLSSLTIPYEEDEEEEEKEETYDDIDGFDSPSCGSQCRPTILPGSVGIKEPTEEKEEEDIYEVLPDEEHDLEEDESGTRRKGVDYASYYQGLWDCHGDQPDELSFQRGDLIRILSKEYNMYGWWVGELNSLVGIVPKEYLTTAFEVEER
- stoichiometry N: 2
